B1: library; numbered along this chain (parent)
chain: MRKPRAAVGSGHRKQAASQEGRQKHAKNNSQAKPSACDGLARQPEEVVLQASVSSYHLFRDVAEVTAFRGSLLSWYDQEKRDLPWRRRAEDEMDLDRRAYAVWVSEVMLQQTQVATVINYYTGWMQKWPTLQDLASASLEEVNQLWAGLGYYSRGRRLQEGARKVVEELGGHMPRTAETLQQLLPGVGRYTAGAIASIAFGQATGVVDGNVARVLCRVRAIGADPSSTLVSQQLWGLAQQLVDPARPGDFNQAAMELGATVCTPQRPLCSQCPVESLCRARQRVEQEQLLASGSLSGSPDVEECAPNTGQCHLCLPPSEPWDQTLGVVNFPRKASRKPPREESSATCVLEQPGALGAQILLVQRPNSGLLAGLWEFPSVTWEPSEQLQRKALLQELQRWAGPLPATHLRHLGEVVHTFSHIKLTYQVYGLALEGQTPVTTVPPGARWLTQEEFHTAAVSTAMKKVFRVYQGQQPGTCMGSKRSQVSSPCSRKKPRMGQQVLDNFFRSHISTDAHSLNSAAQ

Variants of: B1
Assay: 8OG:A repair function score (normalized; synonymous = 0, nonsense = -1) (normalized log-likelihood score); higher = more repair activity (WT-like)
Conditions: with 8OG:A DNA repair reporter (GFP) in HEK-293 MUTYH KO cells
In short: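 Per-tile Rosace fitness scores were converted to a normalized repair function score anchored on synonymous and nonsense distributions. That scale puts synonymous medians at 0 and nonsense medians at -1. Variants with starting counts under 300 counts per million were discarded. Input came from sorting viable mCherry+ MUTYH knockout HEK-293 cells, carrying lentiviral MUTYH cDNA NNN codon-scan libraries in 10 pg/ml doxycycline and an 8OG:A GFP repair reporter, into GFP+ and GFP− bins at 72 h, three replicates per tile, followed by tile amplicon sequencing.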
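Note: cells sorted at 72 h after reporter transfection.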

Variant | 8OG:A repair function score
MRKPRAAVGSGHRKQAASQEGRQKHAKNNSQAKPSACDGLARQPEEVVLQASVSSYHLFRDVAEVTAFRGSLLSWYDQEKRDLPWRRRAEDEMDLDRRAYAVWVSEVMLQQTQVATVINYYTGWMQKWPTLQDLASASLEEVNQLWAGLGYYSRGRRLQEGARKVVEELGGHMPRTAETLQQLLPGVGRYTAGAIASIAFGQATGVVDGNVARVLCRVRWIGADPSSTLVSQQLWGLAQQLVDPARPGDFNQAAMELGATVCTPQRPLCSQCPVESLCRARQRVEQEQLLASGSLSGSPDVEECAPNTGQCHLCLPPSEPWDQTLGVVNFPRKASRKPPREESSATCVLEQPGALGAQILLVQRPNSGLLAGLWEFPSVTWEPSEQLQRKALLQELQRWAGPLPATHLRHLGEVVHTFSHIKLTYQVYGLALEGQTPVTTVPPGARWLTQEEFHTAAVSTAMKKVFRVYQGQQPGTCMGSKRSQVSSPCSRKKPRMGQQVLDNFFRSHISTDAHSLNSAAQ [A220W] | -0.836
MRKPRAAVGSGHRKQAASQEGRQKHAKNNSQAKPSACDGLARQPEEVVLQASVSSYHLFRDVAEVTAFRGSLLSWYDQEKRDLPWRRRAEDEMDLDRRAYAVWVSEVMLQQTQVATVINYYTGWMQKWPTLQDLASASLEEVNQLWAGLGYYSRGRRLQEGARKVVEELGGHMPRTAETLQQLLPGVGRYTAGAIASIAFGQATGVVDGNVARVLCRVRSIGADPSSTLVSQQLWGLAQQLVDPARPGDFNQAAMELGATVCTPQRPLCSQCPVESLCRARQRVEQEQLLASGSLSGSPDVEECAPNTGQCHLCLPPSEPWDQTLGVVNFPRKASRKPPREESSATCVLEQPGALGAQILLVQRPNSGLLAGLWEFPSVTWEPSEQLQRKALLQELQRWAGPLPATHLRHLGEVVHTFSHIKLTYQVYGLALEGQTPVTTVPPGARWLTQEEFHTAAVSTAMKKVFRVYQGQQPGTCMGSKRSQVSSPCSRKKPRMGQQVLDNFFRSHISTDAHSLNSAAQ [A220S] | -0.411
MRKPRAAVGSGHRKQAASQEGRQKHAKNNSQAKPSACDGLARQPEEVVLQASVSSYHLFRDVAEVTAFRGSLLSWYDQEKRDLPWRRRAEDEMDLDRRAYAVWVSEVMLQQTQVATVINYYTGWMQKWPTLQDLASASLEEVNQLWAGLGYYSRGRRLQEGARKVVEELGGHMPRTAETLQQLLPGVGRYTAGAIASIAFGQATGVVDGNVARVLCRVRYIGADPSSTLVSQQLWGLAQQLVDPARPGDFNQAAMELGATVCTPQRPLCSQCPVESLCRARQRVEQEQLLASGSLSGSPDVEECAPNTGQCHLCLPPSEPWDQTLGVVNFPRKASRKPPREESSATCVLEQPGALGAQILLVQRPNSGLLAGLWEFPSVTWEPSEQLQRKALLQELQRWAGPLPATHLRHLGEVVHTFSHIKLTYQVYGLALEGQTPVTTVPPGARWLTQEEFHTAAVSTAMKKVFRVYQGQQPGTCMGSKRSQVSSPCSRKKPRMGQQVLDNFFRSHISTDAHSLNSAAQ [A220Y] | -0.75
MRKPRAAVGSGHRKQAASQEGRQKHAKNNSQAKPSACDGLARQPEEVVLQASVSSYHLFRDVAEVTAFRGSLLSWYDQEKRDLPWRRRAEDEMDLDRRAYAVWVSEVMLQQTQVATVINYYTGWMQKWPTLQDLASASLEEVNQLWAGLGYYSRGRRLQEGARKVVEELGGHMPRTAETLQQLLPGVGRYTAGAIASIAFGQATGVVDGNVARVLCRVRTIGADPSSTLVSQQLWGLAQQLVDPARPGDFNQAAMELGATVCTPQRPLCSQCPVESLCRARQRVEQEQLLASGSLSGSPDVEECAPNTGQCHLCLPPSEPWDQTLGVVNFPRKASRKPPREESSATCVLEQPGALGAQILLVQRPNSGLLAGLWEFPSVTWEPSEQLQRKALLQELQRWAGPLPATHLRHLGEVVHTFSHIKLTYQVYGLALEGQTPVTTVPPGARWLTQEEFHTAAVSTAMKKVFRVYQGQQPGTCMGSKRSQVSSPCSRKKPRMGQQVLDNFFRSHISTDAHSLNSAAQ [A220T] | -0.62
MRKPRAAVGSGHRKQAASQEGRQKHAKNNSQAKPSACDGLARQPEEVVLQASVSSYHLFRDVAEVTAFRGSLLSWYDQEKRDLPWRRRAEDEMDLDRRAYAVWVSEVMLQQTQVATVINYYTGWMQKWPTLQDLASASLEEVNQLWAGLGYYSRGRRLQEGARKVVEELGGHMPRTAETLQQLLPGVGRYTAGAIASIAFGQATGVVDGNVARVLCRVRQIGADPSSTLVSQQLWGLAQQLVDPARPGDFNQAAMELGATVCTPQRPLCSQCPVESLCRARQRVEQEQLLASGSLSGSPDVEECAPNTGQCHLCLPPSEPWDQTLGVVNFPRKASRKPPREESSATCVLEQPGALGAQILLVQRPNSGLLAGLWEFPSVTWEPSEQLQRKALLQELQRWAGPLPATHLRHLGEVVHTFSHIKLTYQVYGLALEGQTPVTTVPPGARWLTQEEFHTAAVSTAMKKVFRVYQGQQPGTCMGSKRSQVSSPCSRKKPRMGQQVLDNFFRSHISTDAHSLNSAAQ [A220Q] | -0.691
MRKPRAAVGSGHRKQAASQEGRQKHAKNNSQAKPSACDGLARQPEEVVLQASVSSYHLFRDVAEVTAFRGSLLSWYDQEKRDLPWRRRAEDEMDLDRRAYAVWVSEVMLQQTQVATVINYYTGWMQKWPTLQDLASASLEEVNQLWAGLGYYSRGRRLQEGARKVVEELGGHMPRTAETLQQLLPGVGRYTAGAIASIAFGQATGVVDGNVARVLCRVRMIGADPSSTLVSQQLWGLAQQLVDPARPGDFNQAAMELGATVCTPQRPLCSQCPVESLCRARQRVEQEQLLASGSLSGSPDVEECAPNTGQCHLCLPPSEPWDQTLGVVNFPRKASRKPPREESSATCVLEQPGALGAQILLVQRPNSGLLAGLWEFPSVTWEPSEQLQRKALLQELQRWAGPLPATHLRHLGEVVHTFSHIKLTYQVYGLALEGQTPVTTVPPGARWLTQEEFHTAAVSTAMKKVFRVYQGQQPGTCMGSKRSQVSSPCSRKKPRMGQQVLDNFFRSHISTDAHSLNSAAQ [A220M] | -0.551

Reference: the supplement of paper PMC11908140
